Measurements from patent publication US20210102192A1 (TWIST BIOSCIENCE, published 2021).
Residue numbers refer to the chain shown, from its start.

T1: Prostaglandin D2 receptor 2 (CRTH2R) (human, UniProt Q9Y5Y4 1-395)
T1 sequence: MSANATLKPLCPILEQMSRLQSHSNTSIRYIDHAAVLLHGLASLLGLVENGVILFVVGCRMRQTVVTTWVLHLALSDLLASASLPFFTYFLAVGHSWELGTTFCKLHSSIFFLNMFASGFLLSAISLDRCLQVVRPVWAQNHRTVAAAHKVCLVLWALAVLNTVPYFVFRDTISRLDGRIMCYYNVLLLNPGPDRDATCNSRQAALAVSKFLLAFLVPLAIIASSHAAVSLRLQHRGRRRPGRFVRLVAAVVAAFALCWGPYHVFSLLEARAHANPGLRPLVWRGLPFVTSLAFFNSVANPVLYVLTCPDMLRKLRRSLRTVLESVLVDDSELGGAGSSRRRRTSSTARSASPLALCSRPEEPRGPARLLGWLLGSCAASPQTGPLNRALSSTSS

T2: Prostaglandin D2 receptor 2 (CRTH2R) (UniProt Q9Y5Y4 1-395)
T2 chain: T1 sequence

B1: CRTH2-19 (antibody, V domains shown)
VH: QVQLVQSGAEVKKPGSSVKVSCKASGGTFSSHAINWVRQAPGQGLEWMGRIIPIVGTTTYAQKFQGRVTITADESTSTAYMELSSLRSEDTAVYYCARDMYYDFDYFGLTLTGDRNDDEVVPADDAFDIWGQGTLVTVSS
VL: QSALTQPASVSGSPGQSITISCTGTSSDVGGYDYVTWYQQHPGKAPKLMIYDVDTRPSGVSNRFSGSKSGNTASLTISGLQAEDEADYYCSSYTTSTSYVFGGGTKLTVL
B2: CRTH2-15 (antibody, V domains shown)
VH: QVQLVQSGAEVKKPGSSVKVSCKASGGTFSTYAIDWVRQAPGQGLEWMGGIIPLFGSPNYAQKFQGRVTITADESTSTAYMELSSLRSEDTAVYYCARANQHFFLYEGTSSSWLHVGHARYGYHYYGMDVWGQGTLVTVSS
VL: QSVLTQPPSVSAAPGQKVTISCSGSGSNIGSNYVSWYQQLPGTAPKLLIYDNIRRPSGIPDRFSGSKSGTSATLGITGLQTGDEADYYCAAWDTRLSAGVFGGGTKLTVL
B3: CRTH2-8 (antibody, V domains shown)
VH: QVQLVQSGAEVKKPGSSVKVSCKASGGTFTDYAISWVRQAPGQGLEWMGGIIPFFGSPNYAQKFQGRVTITADESTSTAYMELSSLRSEDTAVYYCARDMYYDFAAGLEGTITEVFDEEGHQGGTEVVPADDAFDIWGQGTLVTVSS
VL: B2 VL with G26S, S31K, I53N, R54Q, A90G, A91T, R95S, S97T, A98S, G99V
B4: CRTH2-60 (antibody, V domains shown)
VH: QVQLVQSGAEVKKPGSSVKVSCKASGGTFKNYAINWVRQAPGQGLEWMGAIIPKFGAANYAQKFQGRVTITADESTSTAYMELSSLRSEDTAVYYCARANQHFSAVRGLAFGYGYRIGGYHYYGMDVWGQGTLVTVSS
VL: QSVLTQPPSVSAAPGQKVTISCSGSTSNIGINYVSWYQQLPGTAPKLLIYENRKRPSGIPDRFSGSKSGTSATLGITGLQTGDEADYYCATWDASLKNLVFGGGTKLTVL
B5: CRTH2-24 (antibody, V domains shown)
VH: QVQLVQSGAEVKKPGSSVKVSCKASGGSFSNYGISWVRQAPGQGLEWMGGIIPLIGTANYAQKFQGRVTITADESTSTAYMELSSLRSEDTAVYYCARDMYYDFTLGPQSIGPLGEVVPADDAFDIWGQGTLVTVSS
VL: QSVLTQPPSVSAAPGQKVTISCSGSSSNIGNNFVSWYQQLPGTAPKLLIYDNIQRPSGIPDRFSGSKSGTSATLGITGLQTGDEADYYCGTWDTSLSAVVFGGGTKLTVLR
B6: CRTH2-70 (antibody, V domains shown)
VH: QVQLVQSGAEVKKPGSSVKVSCKASGGTFSNHAIIWVRQAPGQGLEWMGGIIPIFGTPSYAQKFQGRVTITADESTSTAYMELSSLRSEDTAVYYCARDMYYDFDVISAGVVGAGNPEVVPADDAFDIWGQGTLVTVSS
VL: QSVLTQPPSVSAAPGQKVTISCSGSTSNIGNNFVSWYQQLPGTAPKLLIYDNEKRPSGIPDRFSGSKSGTSATLGITGLQTGDEADYYCGTWDERQTDESYVFGGGTKLTVL
B7: CRTH2-32 (antibody, V domains shown)
VH: QVQLVESGGGVVQPGRSLRLSCAASGFTFSKHGMHWVRQAPGKGLEWVAFISYEGSEKYYADSVKGRFTISRDNSKNTLYLQMNSLRAEDTAVYYCARDMYYDFHYSTVGATYYYYLGSETEVVPADDAFDIWGQGTLVTVSS
VL: QSALTQPASVSGSPGQSITISCTGTSSGVGGYDYVSWYQQHPGKAPKLMIYDDNNRPSGVSNRFSGSKSGNTASLTISGLQAEDEADYYCSSYTGSSTLYVFGGGTKLTVL
B8: CRTH2-42 (antibody)
VH: QVQLVESGGGVVQPGRSLRLSCAASGFAFSSYAMHWVRQAPGKGLEWVAVISYEGSNEYYADSVKGRFTISRDNSKNTLYLQMNSLRAEDTAVYYCARDLRELECEEWTVLQYGKFHMRWAESGEGSLSRGPCVDPRGVAGSFDVWGQGTLVTVSS
VL: B7 VL with G28D, D33R, D52N, D53V, N55Y, T94R, G95S, Y100G
B9: CRTH2-50 (antibody, V domains shown)
VH: QVQLVQSGAEVKKPGSSVKVSCKASGGTFSSYALSWVRKAPGQGLEWMGGTIPIFGTVNYAQKFQGRVTITADESTSTAYMELSSLRSEDTAVYYCARANQHFTRVIGQPSPAVPSRGYIYHGYHYYGMDVWGQGTLVTVSS
VL: QSALTQPASVSGSPGQSITISCTGTSSDIGGYNFVSWYQQHPGKAPKLMIYDVSNRPQGVSNRFSGSKSGNTASLTISGLQAEDEADYYCSSYTSSNTYVVFGGGTKLTVL
B10: CRTH2-45 (antibody)
VH: QVQLVESGGGVVQPGRSLRLSCAASGFTFSHYAMHWVRQAPGKGLEWVADISHEGSNKYYADSVKGRFTISRDNSKNTLYLQMNSLRAEDTAVYYCARDGRGSLPRPKGGPTSGGGFSTNIGYGFVVQSYDSSEDSGGAFDIWGQGTLVTVSS
VL: QSVLTQPPSVSAAPGQKVTISCSGTSSNIENNYVSWYQQLPGTAPKLLIYDNVKRPSGIPDRFSGSKSGTSATLGITGLQTGDEADYYCGTWDNTVSAPWVFGGGTKLTVL
B11: CRTH2-74 (antibody)
VH: QVQLVESGGGVVQPGRSLRLSCAASGFSFSEYGIHWVRQAPGKGLEWVAVISYEGSNEYYADSVKGRFTISRDNSKNTLYLQMNSLRAEDTAVYYCARANQHFGPVAGGATPSEEPGSQLTRAELGWDAPPGQESLADELLQLGTEHGYHYYGMDVWGQGTLVTVSS
VL: QSVLTQPPSVSAAPGQKVTISCSGSTSNIGKNYVSWYQQLPGTAPKLLIYDDDERPSGIPDRFSGSMSGTSATLGITGLQTGDEADYYCEAWDADLSGAVFGGGTKLTVL
B12: CRTH2-9 (antibody, V domains shown)
VH: QVQLVQSGAEVKKPGSSVKVSCKASGGTFSSYAISWVRQAPGQGLEWMGGIIPIFGTANYAQKFQGRVTITADESTSTAYMELSSLRSEDTAVYYCARDMYYDFWLGDQSTGSLIGAEVVPADDAFDIWGQGTLVTVSS
VL: B2 VL with G26T, S31N, D51E, I53D, R54E, A91T, G99V
B13: CRTH2-28 (antibody, V domains shown)
VH: QVQLVQSGAEVKKPGSSVNVSCKASGGTFSDYAFSWVRQAPGQGLEWMGAIIPFFGTVNYAQKFQGRVTITADESTSTAYMELSSLRSEDTAVYYCARDMYYDFATGTGGPEDDLYPQGELNDGYRIEVVPADDAFDIWGQGTLVTVSS
VL: B2 VL with G26I, S31K, N52D, I53H, R54K, A91T, T94R, R95G, G99A
B14: CRTH2-27 (antibody, V domains shown)
VH: QVQLVESGGGVVQPGRSLRLSCAASGFTFDNYGMHWVRQAPGKGLEWVAVISYEGSNKKYADSVKGRFTISRDNSKNTLYLQMNSLRAEDTAVYYCARDMYYDFGSIYGEDVVGELPEVVPADDAFDIWGQGTLVTVSS
VL: QSALTQPASVSGSPGQSITISCTGTSNDVGAYNFVSWYQQHPGKAPKLMIYDISNRPSGVSNRFSGSKSGNTASLTISGLQAEDEADYYCSSYTRSNTRVFGGGTKLTVL
B15: CRTH2 35 (antibody, V domains shown)
VH: QVQLVQSGAEVKKPGSSVKVSCKASGGTFRSYAISWVRQAPGQGLEWMGGIIPISGTTNYAQKFQGRVTITADESTSTAYMELSSLRSEDTAVYYCARANQHFTRIFGNYQIYFGHFGYHYYGMDVWGQGTLVTVSS
VL: B9 VL with N33E, D52G, N55R, Q58S, S91G, N97S, Y99P, V100Y
B16: CRTH2 57 (antibody, V domains shown)
VH: QVQLVQSGAEVKKPGSSVKVSCKASGGTFSSYAMSWVRQAPGQGLEWMGGIIPLFGTTDYAQKFQGRVTITADESTSTAYMELSSLRSEDTAVYYCARANQHFVKIQGAPVSTPVPGFGTTGYHYYGMDVWGQGTLVTVSS
VL: B2 VL with G26S, G30E, S31D, I53F, R54K, A90G, A91T, R95S, G99A, V100L
B17: CRTH2 66 (antibody)
chain 1: QVQLVESGGGVVQPGRSLRLSCAASGFDFSGYGMHWVRQAPGKGLEWVAVISYEGSNKFYADSVKGRFTISRDNSKNTLYLQMNSLRAEDTAVYYCARDLRELECEEWTIEVHGQEFAVHQDRGGVFSRGPCVDPRGVAGSFDVWGQGTLVTVSS
chain 2: EIVMTQSPATLSVSPGERATLSCRASQGVGSNLAWYQQKPGQAPRLLIYRTSIRATGIPARFSGSGSGTEFTLTISSLQSEDFAVYYCQQYYSWPPLTFGGGTKVEIK

biological target: T1, Prostaglandin D2 receptor 2 (CRTH2R); test: cell-based or functional assay

Row | Binder | antagonist activity in PGD2-induced cAMP assay at 33 nM IgG | IC50 fold difference of the PGD2 dose response curve (cAMP assay, 100 nM IgG)
1 | B1 | > 20% | –
2 | B2 | > 20% | –
3 | B3 | > 20% | –
4 | B4 | > 20% | –
5 | B5 | > 20% | –
6 | B6 | > 20% | –
7 | B7 | – | > 2 fold
8 | B8 | > 20% | > 2 fold
9 | B9 | – | > 2 fold
10 | B10 | > 20% | –
11 | B11 | > 20% | –
12 | B12 | > 20% | > 2 fold
13 | B13 | > 20% | –
14 | B14 | – | > 2 fold

Biological target: T2, Prostaglandin D2 receptor 2 (CRTH2R)
Test: FACS binding; CHO CRTH2R-positive cells

Row | Binder | EC50
15 | B7 | 0.0124 µM
16 | B15 | 0.0126 µM
17 | B10 | 0.0232 µM

Biological target: T2, Prostaglandin D2 receptor 2 (CRTH2R)
Test: FACS binding; CHO CRTH2R-positive cells
Remark: another data set of the same source

Row | Binder | EC50
18 | B16 | 0.158 µM
19 | B17 | 0.00395 µM

Biological target: T2, Prostaglandin D2 receptor 2 (CRTH2R)
Test: FACS binding; CHO CRTH2R-positive cells
Remark: another data set of the same source

Row | Binder | EC50
20 | B1 | 0.0167 µM
21 | B11 | 0.00861 µM

Biological target: T2, Prostaglandin D2 receptor 2 (CRTH2R)
Test: FACS binding; CHO CRTH2R-positive cells
Remark: another data set of the same source

Row | Binder | EC50
22 | B2 | 0.0738 µM
23 | B9 | 0.0196 µM
